# Laboratory results as given in patent US20080213281A1, “Butyrylcholinesterase Variants that Alter the Activity of Chemotherapeutic Agents” (priority 2002, published 2008).
# Where two headings read alike, the source gives them in different places.
# Key:
# [1] = cited from earlier work; for Km: Humerickhouse et al., read-out: Km (CPT-11 conversion)
# [2] = patients treated with 200 mg/m2 CPT-11; for at least 24 hours; Ducreux et al.; cited from earlier work
# [3] = in vitro; Pavillard et al.; cited from earlier work
# [4] = molecular target: CD20 (human) (UniProt P11836); experiment: method not stated
# [5] = o-nitrophenyl acetate (o-NPA) hydrolysis assay for carboxylesterase activity of antibody-captured butyrylcholinesterase variants; type: biochemical; details: antibody capture/normalization
# Protocol: A modification of this assay that measures o-NPA activity of butyrylcholinesterase variants normalized by capturing with an anti-butyrylcholinesterase antibody was performed as described below.
# Protocol to Determine Carboxylesterase activity of Captured Butyrylcholinesterase by o-Nitrophenyl acetate:
# 1) Coat 96-well Immulon 2 plates with rabbit anti-human butyrylcholinesterase (Dako #A0032) at 10 mg/ml in PBS (100 ml/well) overnight at 4° C. 2) Remove coating solution and block plate with 3% BSA in PBS (250 ml/well) for 2 hours at room temperature. 3) Add 200 ml butyrylcholinesterase variant conditioned media and incubate at RT for 2 hrs. 4) Wash plate 3 times with 250 ml/well PBS. 5) Add 85 ml/well 0.1 M potassium phosphate pH 7.0 6) Add 13.6 mg o-NPA to 100 ml acetonitrile, mix to dissolve. Add 100 ml of this stock to 6.3 mls water and mix well. 7) Wash plate 3 times with PBS. 8) Add 15 ml of diluted o-NPA substrate. 9) Read absorbance at 405 nm.
# Conditioned media from butyrylcholinesterase variants that were transiently expressed in 293T cells was tested using the above described anti-butyrylcholinesterase antibody capture/normalization assay for carboxylesterase activity. […] The level of activity of the other variants can be compared to the level of activity of F227A. […] In order to determine the amount of variability present in the assay, several wells contained the same variant. […]
# [6] = HPLC assay of CPT-11 conversion to SN-38 by conditioned media of transiently expressed BChE variants; type: biochemical; details: conditioned media
# Protocol: Butyrylcholinesterase variants were assayed for CPT-11 conversion activity using fluorescent High Performance Liquid Chromotography (HPLC) detection of SN-38 formation as described in Dodds and Rivory, Mol. Pharmacol. 56:1346-1353 (1999), which is incorporated herein by reference. Briefly, conditioned media from transiently expressed BChE variants were exposed to 20 mM CPT-11 for 72 hours at 37° C. and analyzed by HPLC for SN-38 formation (peak at about 4 minutes column retention time).
# [7] = CPT-11 hydrolysis by BChE variant 4-1, SN38 quantitated by reverse-phase HPLC, Km by Hofstee plot; type: biochemical; details: for Km / fold increase in CPT-11 hydrolysis over wild-type BChE: 37° C., 24 hours; for Km: 1-80 μM CPT-11; for fold increase in CPT-11 hydrolysis over wild-type BChE: SN38 peak AUC; for fold improvement in the Km for CPT-11: over wild-type / native serum BChE
# Protocol: BChE plasmid variants were expressed transiently in the human embryonic kidney cell line 293T and assayed for activity at 72 hours post-transfection. Primary screening of variants was performed by indirect measurement of enzymatic activation of CPT-11 (FIG. 2) in SW48 colon carcinoma cell cytotoxicity assays. […] Functional hits identified in these assays were characterized by sequence analysis of the corresponding DNA from the original preps. […] Enzyme was incubated at 37° C. for 24 hours with CPT-11 over a range of concentrations from 1-80 μM. […] Velocity (v) is in light absorbance units at 540 nm. Substrate concentration [s] is μM CPT-11.
# Samples were acidified and resolved by reverse-phase HPLC on a NovaPak C18 column to separate SN38 from unactivated CPT-11. SN38 peak area under the curve (AUC) was used to compare CPT-11 activation by the wild-type enzyme to the optimized BChE.4-1 variant.
# [8] = molecular target: T1, CD20 (Homo sapiens, UniProt P11836); experiment: affinity of monovalent AME133 Fab for CD20; type: binding
# T1 sequence (P11836 1-297): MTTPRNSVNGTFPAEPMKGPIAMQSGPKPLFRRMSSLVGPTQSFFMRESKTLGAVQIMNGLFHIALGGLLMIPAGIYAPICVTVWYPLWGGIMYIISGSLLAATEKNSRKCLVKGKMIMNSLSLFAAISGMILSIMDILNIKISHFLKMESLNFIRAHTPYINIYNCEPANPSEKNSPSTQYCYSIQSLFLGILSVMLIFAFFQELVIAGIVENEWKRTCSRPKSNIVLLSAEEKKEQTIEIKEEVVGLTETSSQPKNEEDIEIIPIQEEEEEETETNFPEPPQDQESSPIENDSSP
# Excerpt: AME133 is a humanized anti-CD20 with fully human germline framework regions shown in FIGS. 19 and 20 and set forth as SEQ ID NOS: 198 and 200, with corresponding nucleic acid sequences SEQ ID NOS: 197 and 199. This antibody was generated at Applied Molecular Evolution using the company's directed evolution strategies, and the monovalent Fab binds to CD20 with extremely high affinity (1×10^−9 M). Anti-CD20-BChE.4-1 (SEQ ID NO: 202) is composed of AME133 Fab fused at the C-terminal end of the CH1 heavy chain domain to the N-terminus of modified BChE variant L530 (SEQ ID NO: 204), which is a functional fragment of reference SEQ ID NO: 180. The BChE variant was truncated at amino acid 530 to abrogate its normal assembly into tetramers.
molecule,measurement,setting,value
hCE-1,Km,[1],43 µM
"CCc1c2c(nc3ccc(OC(=O)N4CCC(N5CCCCC5)CC4)cc13)-c1cc3c(c(=O)n1C2)COC(=O)[C@]3(O)CC [CPT-11, 7-ethyl-10-[4-(1-piperidino)-1-piperidine]carbonyloxycamptothecin]",plasma concentration of CPT-11,[2],above 0.1 μM
"CCc1c2c(nc3ccc(O)cc13)-c1cc3c(c(=O)n1C2)COC(=O)[C@]3(O)CC [SN38, 7-ethyl-10-hydroxycamptothecin]",fold more cytotoxic than CPT-11,[3],greater than 1000 fold
AME133 Fab (humanized anti-CD20 with fully human germline framework regions),Kd,[4],1 nM
"wild-type butyrylcholinesterase (protein, UniProt P06276 29-602, looked up) Cholinesterase: EDDIIIATKNGKVRGMNLTVFGGTVTAFLGIPYAQPPLGRLRFKKPQSLTKWSDIWNATKYANSCCQNIDQSFPGFHGSEMWNPNTDLSEDCLYLNVWIPAPKPKNATVLIWIYGGGFQTGTSSLHVYDGKFLARVERVIVVSMNYRVGALGFLALPGNPEAPGNMGLFDQQLALQWVQKNIAAFGGNPKSVTLFGESAGAASVSLHLLSPGSHSLFTRAILQSGSFNAPWAVTSLYEARNRTLNLAKLTGCSRENETEIIKCLRNKDPQEILLNEAFVVPYGTPLSVNFGPTVDGDFLTDMPDILLELGQFKKTQILVGVNKDEGTAFLVYGAPGFSKDNNSIITRKEFQEGLKIFFPGVSEFGKESILFHYTDWVDDQRPENYREALGDVVGDYNFICPALEFTKKFSEWGNNAFFYYFEHRSSKLPWPEWMGVMHGYEIEFVFGLPLERRDNYTKAEEILSRSIVKRWANFAKYGNPNETQNNSTSWPVFKSTEQKYLTLNTESTRIMTKLRAQQCRFWTSFFPKVLEMTGNIDEAEWEWKAGFHRWNNYMMDWKNQFNDYTSKKESCVGL",carboxylesterase activity relative to the level of activity seen with F227A,[5],approximately 50%
same,CPT-11 conversion,[6]; HPLC assay,less than 1%
same,SN-38 formation from CPT-11 (in words),"[6]; HPLC, compared to mock or wild-type",did not show detectable levels of SN-38
same,Km,[7],40 µM
"4-1 variant (protein, Synthetic butyrylcholinesterase variant; VARIANT (77)..(77): H77F; VARIANT (227)..(227): Xaa = Ala; VARIANT (285)..(285): P285N; VARIANT (331)..(331): V331A) EDDIIIATKNGKVRGMNLTVFGGTVTAFLGIPYAQPPLGRLRFKKPQSLTKWSDIWNATKYANSCCQNIDQSFPGFFGSEMWNPNTDLSEDCLYLNVWIPAPKPKNATVLIWIYGGGFQTGTSSLHVYDGKFLARVERVIVVSMNYRVGALGFLALPGNPEAPGNMGLFDQQLALQWVQKNIAAFGGNPKSVTLFGESAGAASVSLHLLSPGSHSLFTRAILQSGSXNAPWAVTSLYEARNRTLNLAKLTGCSRENETEIIKCLRNKDPQEILLNEAFVVPYGTNLSVNFGPTVDGDFLTDMPDILLELGQFKKTQILVGVNKDEGTAFLAYGAPGFSKDNNSIITRKEFQEGLKIFFPGVSEFGKESILFHYTDWVDDQRPENYREALGDVVGDYNFICPALEFTKKFSEWGNNAFFYYFEHRSSKLPWPEWMGVMHGYEIEFVFGLPLERRDNYTKAEEILSRSIVKRWANFAKYGNPNETQNNSTSWPVFKSTEQKYLTLNTESTRIMTKLRAQQCRFWTSFFPKVLEMTGNIDEAEWEWKAGFHRWNNYMMDWKNQFNDYTSKKESCVGL",Km,[7],~7 µM
same,Km,[7]; listed as BChE variant 4-1,6.9 µM
same,fold increase in CPT-11 hydrolysis over wild-type BChE,[7],> 3000 fold
same,fold increase in CPT-11 hydrolysis over wild-type BChE,[7]; listed as BChE variant 4-1,> 3000 fold
same,fold increase in CPT-11 hydrolysis over wild-type BChE,[7]; listed as SEQ ID NO: 180,three thousand
same,fold improvement in the Km for CPT-11,[7],5-6 fold
same,fold improvement in the Km for CPT-11,[7]; listed as BChE variant 4-1,> 5 fold
"AME133 (protein, Synthetic butyrylcholinesterase variant; MISC_FEATURE (1)..(213): Anti-CD20 antibody light chain; MISC_FEATURE (1)..(765): Anti-CD20 antibody VH-CH1 hinge cys L530 BChE.4-1 heavy chain construct) light: EIVLTQSPGTLSLSPGERATLSCRASSSVPYIHWYQQKPGQAPRLLIYATSALASGIPDRFSGSGSGTDFTLTISRLEPEDFAVYYCQQWLSNPPTFGQGTKLEIKRTVAAPSVFIFPPSDEQLKSGTASVVCLLNNFYPREAKVQWKVDNALQSGNSQESVTEQDSKDSTYSLSSTLTLSKADYEKHKVYACEVTHQGLSSPVTKSFNRGEC heavy: EVQLVQSGAEVKKPGESLKISCKGSGRTFTSYNMHWVRQMPGKGLEWMGAIYPLTGDTSYNQKSKLQVTISADKSISTAYLQWSSLKASDTAMYYCARSTYVGGDWQFDVWGKGTTVTVSSASTKGPSVFPLAPSSKSTSGGTAALGCLVKDYFPEPVTVSWNSGALTSGVHTFPAVLQSSGLYSLSSVVTVPSSSLGTQTYICNVNHKPSNTKVDKKAEPKSCDKTHTCPPCPKLEDDIIIATKNGKVRGMNLTVFGGTVTAFLGIPYAQPPLGRLRFKKPQSLTKWSDIWNATKYANSCCQNIDQSFPGFFGSEMWNPNTDLSEDCLYLNVWIPAPKPKNATVLIWIYGGGFQTGTSSLHVYDGKFLARVERVIVVSMNYRVGALGFLALPGNPEAPGNMGLFDQQLALQWVQKNIAAFGGNPKSVTLFGESAGAASVSLHLLSPGSHSLFTRAILQSGSANAPWAVTSLYEARNRTLNLAKLTGCSRENETEIIKCLRNKDPQEILLNEAFVVPYGTNLSVNFGPTVDGDFLTDMPDILLELGQFKKTQILVGVNKDEGTAFLAYGAPGFSKDNNSIITRKEFQEGLKIFFPGVSEFGKESILFHYTDWVDDQRPENYREALGDVVGDYNFICPALEFTKKFSEWGNNAFFYYFEHRSSKLPWPEWMGVMHGYEIEFVFGLPLERRDNYTKAEEILSRSIVKRWANFAKYGNPNETQNNSTSWPVFKSTEQKYLTLNTESTRIMTKLRAQQCRFWTSFFPKV",Kd,[8],1 nM
"hCE-2 (protein, UniProt O00748 27-559, looked up) Cocaine esterase: QDSASPIRTTHTGQVLGSLVHVKGANAGVQTFLGIPFAKPPLGPLRFAPPEPPESWSGVRDGTTHPAMCLQDLTAVESEFLSQFNMTFPSDSMSEDCLYLSIYTPAHSHEGSNLPVMVWIHGGALVFGMASLYDGSMLAALENVVVVIIQYRLGVLGFFSTGDKHATGNWGYLDQVAALRWVQQNIAHFGGNPDRVTIFGESAGGTSVSSLVVSPISQGLFHGAIMESGVALLPGLIASSADVISTVVANLSACDQVDSEALVGCLRGKSKEEILAINKPFKMIPGVVDGVFLPRHPQELLASADFQPVPSIVGVNNNEFGWLIPKVMRIYDTQKEMDREASQAALQKMLTLLMLPPTFGDLLREEYIGDNGDPQTLQAQFQEMMADSMFVIPALQVAHFQCSRAPVYFYEFQHQPSWLKNIRPPHMKADHGDELPFVFRSFFGGNYIKFTEEEEQLSRKMMKYWANFARNGNPNGEGLPHWPLFDQEEQYLQLNLQPAVGRALKAHRLQFWKKALPQKIQELEEPEERHTEL",Km,[1],3.4 µM
same,"rate of CPT-11 conversion to SN38, fold higher than hCE-1",[1]; at pharmacologically relevant drug concentrations (˜1-10 μM),25-30 fold
